In patent US20210009697A1 (Five Prime, published 2021):

T1: ICOS (UniProt Q9Y6W8 21-141, limits assumed)
T1 construct: also called inducible co-stimulator
T1 sequence (looked up): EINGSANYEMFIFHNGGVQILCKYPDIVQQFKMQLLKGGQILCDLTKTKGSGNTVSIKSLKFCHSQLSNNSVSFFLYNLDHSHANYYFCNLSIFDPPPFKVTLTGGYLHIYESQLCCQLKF

T2: CTLA-4 (human, UniProt P16410 37-162, limits assumed)
T2 construct: also called cytotoxic T lymphocyte antigen-4
T2 sequence (looked up): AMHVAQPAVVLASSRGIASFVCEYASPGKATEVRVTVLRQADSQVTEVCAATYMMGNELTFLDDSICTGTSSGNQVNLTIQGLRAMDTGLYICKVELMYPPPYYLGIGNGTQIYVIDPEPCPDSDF

T3: BTLA (UniProt Q7Z6A9 31-151, limits assumed)
T3 construct: also called B- and T-lymphocyte attenuator
T3 sequence (looked up): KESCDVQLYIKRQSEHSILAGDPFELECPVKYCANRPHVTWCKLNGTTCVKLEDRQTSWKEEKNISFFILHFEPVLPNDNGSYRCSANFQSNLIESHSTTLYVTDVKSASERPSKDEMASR

T4: mouse CSF1R (mouse, UniProt P09581 20-511, limits assumed)
T4 construct: In the mNFS60 proliferation assay the receptor is that of the cell line
T4 sequence (looked up): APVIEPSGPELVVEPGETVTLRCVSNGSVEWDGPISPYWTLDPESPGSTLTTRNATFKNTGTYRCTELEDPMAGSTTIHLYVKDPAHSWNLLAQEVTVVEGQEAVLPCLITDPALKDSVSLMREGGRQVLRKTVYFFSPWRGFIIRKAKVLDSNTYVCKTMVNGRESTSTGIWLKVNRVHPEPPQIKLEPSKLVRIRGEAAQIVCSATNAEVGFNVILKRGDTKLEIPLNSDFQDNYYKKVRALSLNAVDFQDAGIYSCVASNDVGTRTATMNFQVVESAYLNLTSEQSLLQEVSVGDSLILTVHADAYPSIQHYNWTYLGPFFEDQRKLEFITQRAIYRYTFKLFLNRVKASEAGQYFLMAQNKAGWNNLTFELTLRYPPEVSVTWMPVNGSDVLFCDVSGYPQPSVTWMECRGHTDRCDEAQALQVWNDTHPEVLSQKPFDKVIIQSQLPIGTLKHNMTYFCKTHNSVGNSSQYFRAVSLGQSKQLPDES


Key:
ICOS = target: T1, ICOS; test: in vitro, method not described
CTLA-4 = target: T2, CTLA-4; test: in vitro, method not described
BTLA = target: T3, BTLA; test: in vitro, method not described
[1] = target: T5, human colony stimulating factor 1 receptor (CSF1R) (human, UniProt P07333 20-506, limits assumed); test: not described
T5 construct: In the monocyte assays the receptor is the endogenous one on primary human monocytes; also called hCSF1R

mouse CSF1R = target: T4, mouse CSF1R; test: not described

T5 sequence (P07333 20-506 limits assumed): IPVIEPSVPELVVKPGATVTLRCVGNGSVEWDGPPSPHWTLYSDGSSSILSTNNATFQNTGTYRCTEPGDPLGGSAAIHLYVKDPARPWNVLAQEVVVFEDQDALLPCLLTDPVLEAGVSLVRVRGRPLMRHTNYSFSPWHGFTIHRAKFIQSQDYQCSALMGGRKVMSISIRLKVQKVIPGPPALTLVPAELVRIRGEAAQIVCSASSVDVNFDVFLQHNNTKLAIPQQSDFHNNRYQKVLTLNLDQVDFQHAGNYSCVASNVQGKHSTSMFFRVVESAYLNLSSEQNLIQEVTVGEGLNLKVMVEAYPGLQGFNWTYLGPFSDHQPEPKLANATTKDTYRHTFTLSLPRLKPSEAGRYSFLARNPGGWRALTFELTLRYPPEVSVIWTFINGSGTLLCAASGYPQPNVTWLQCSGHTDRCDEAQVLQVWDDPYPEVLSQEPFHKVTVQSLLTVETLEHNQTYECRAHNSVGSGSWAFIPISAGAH

binding result (ICOS)	binding result (CTLA-4)	binding result (BTLA)	binding result [1]	binding result (mouse CSF1R)	Binder
no binding	no binding	no binding			Nivolumab (antibody, human IgG4 S228P, kappa, V domains shown, also called Opdivo; 5C4) VH: QVQLVESGGGVVQPGRSLRLDCKASGITFSNSGMHWVRQAPGKGLEWVAVIWYDGSKRYYADSVKGRFTISRDNSKNTLFLQMNSLRAEDTAVYYCATNDDYWGQGTLVTVSS VL: EIVLTQSPATLSLSPGERATLSCRASQSVSSYLAWYQQKPGQAPRLLIYDASNRATGIPARFSGSGSGTDFTLTISSLEPEDFAVYYCQQSSNWPRTFGQGTKVEIKR
			binds	no binding	Cabiralizumab (antibody, human IgG4 S228P, kappa, V domains shown, also called FPA008; HuAb1) VH: QVQLVQSGAEVKKPGSSVKVSCKASGYTFTDNYMIWVRQAPGQGLEWMGDINPYNGGTTFNQKFKGRVTITADKSTSTAYMELSSLRSEDTAVYYCARESPYFSNLYVMDYWGQGTLVTVSS VL: EIVLTQSPATLSLSPGERATLSCKASQSVDYDGDNYMNWYQQKPGQAPRLLIYAASNLESGIPARFSGSGSGTDFTLTISSLEPEDFAVYYCHLSNEDLSTFGGGTKVEIKR
